This is an account of results in patent publication US20020137138A1.

This assay addresses human short form of the 5-HT3-A receptor (Genbank accession #D49394) (human) (UniProt P46098). Put plainly: cell-based or functional assay.

human short form of the 5-HT3-A receptor (Genbank accession #D49394) (human), sequence (P46098 24-478): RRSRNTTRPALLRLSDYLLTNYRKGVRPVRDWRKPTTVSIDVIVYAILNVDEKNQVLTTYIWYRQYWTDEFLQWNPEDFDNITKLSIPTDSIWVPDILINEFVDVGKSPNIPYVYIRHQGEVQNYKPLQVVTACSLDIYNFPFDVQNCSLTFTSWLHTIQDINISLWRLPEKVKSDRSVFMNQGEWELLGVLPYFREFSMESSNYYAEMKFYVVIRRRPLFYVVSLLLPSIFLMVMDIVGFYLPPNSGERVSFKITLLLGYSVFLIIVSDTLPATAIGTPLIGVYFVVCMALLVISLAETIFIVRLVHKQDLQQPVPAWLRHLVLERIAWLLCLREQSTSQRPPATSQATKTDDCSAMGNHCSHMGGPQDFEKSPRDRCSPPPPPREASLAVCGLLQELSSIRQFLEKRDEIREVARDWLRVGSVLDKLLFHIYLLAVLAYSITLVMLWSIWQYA

Take “human 5-HT3-C (human serotonin 5-HT3 receptor modifier subunit 5-HT3-C) (from UniProt Q8WXA8 28-447)”: the 5-HT response, oocytes at a 1.8x fold 5-HT3-C to 5-HT3-A cRNA concentration was found to be 20 % diminished; the peak current to 5-HT, oocytes injected with 5-HT3-C and 5-HT3-A(short) at a ratio of 2:1 was -0.028 nA; the peak response to 10 µM 5-HT (two-electrode voltage clamp, Xenopus oocytes co-injected with 2-fold more 5-HT3-C cRNA, 0.67 ng) was 10 % of control; the response to 10 µM 5-HT, oocytes injected with 5-HT3-C:5-HT3-A(short) at 10:1 (3.35 ng : 0.33 ng cRNA) was -0.01 nA.
